Where a SMILES comes first, the peptide text is derived from it. Where no end group is shown, it is not given here. [ ]: non-standard residue; d: D form. ξ: configuration not given here. Arg(NO2) = N=C(NCCC[C@H](N)C(=O)O)N[N+](=O)[O-]; αMePhe(2,6-F2) = C[C@](N)(Cc1c(F)cccc1F)C(=O)O; αMePhe(2-F) = C[C@](N)(Cc1ccccc1F)C(=O)O; ξαMe(hhPhe) = CC(N)(CCCc1ccccc1)C(=O)O; ξαMePhe(2-F) = CC(N)(Cc1ccccc1F)C(=O)O; hArg = N=C(N)NCCCC[C@H](N)C(=O)O; hCit = NC(=O)NCCCC[C@H](N)C(=O)O; αMeF = C[C@](N)(Cc1ccccc1)C(=O)O; Cit = NC(=O)NCCC[C@H](N)C(=O)O; ξαMeM = CSCCC(C)(N)C(=O)O; Nle = CCCC[C@H](N)C(=O)O; Orn = NCCC[C@H](N)C(=O)O; Ac5c = NC1(C(=O)O)CCCC1; Ac3c = NC1(C(=O)O)CC1; Aib = CC(C)(N)C(=O)O
T1: rat PTH-1R (rat PTHR endogenously expressed on UMR-106 rat osteosarcoma cells) (rat, UniProt P25961 27-591)
T1 sequence (looked up): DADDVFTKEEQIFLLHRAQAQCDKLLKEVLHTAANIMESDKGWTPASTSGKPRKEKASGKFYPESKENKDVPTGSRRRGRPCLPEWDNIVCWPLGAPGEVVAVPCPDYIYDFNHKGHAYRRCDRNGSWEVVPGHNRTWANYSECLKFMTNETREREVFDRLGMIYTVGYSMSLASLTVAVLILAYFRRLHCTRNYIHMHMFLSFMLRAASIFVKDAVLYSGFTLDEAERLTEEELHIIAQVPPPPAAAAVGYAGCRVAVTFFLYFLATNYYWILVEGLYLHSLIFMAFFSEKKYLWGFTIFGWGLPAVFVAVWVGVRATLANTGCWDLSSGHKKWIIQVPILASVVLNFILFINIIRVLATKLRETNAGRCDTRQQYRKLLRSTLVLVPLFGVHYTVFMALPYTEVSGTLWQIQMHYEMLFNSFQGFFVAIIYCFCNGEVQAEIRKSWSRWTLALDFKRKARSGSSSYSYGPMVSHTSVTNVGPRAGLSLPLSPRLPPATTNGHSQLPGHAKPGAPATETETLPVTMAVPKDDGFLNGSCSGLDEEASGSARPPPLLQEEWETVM


Key:
[1] = Stability of peptides in human liver microsomes; type: in vitro ADME
Method: (§1) b) Stability of Peptides in Human Plasma, Simulated Gastric Fluid, Intestinal Fluid and Liver Microsomes (Ex-Vivo): Different short-chain peptides (final concentration 2 μM) were incubated with either pooled human plasma (7.5 μL) or simulated gastric fluid (pH 1.5; composition HCl, NaCl and Pepsin) or simulated intestinal fluid (pH 7.5) or human liver microsomes, for 0, 2, 4, 6, 12 and 24 h (37° C.; 50 mM triethanolamine-HCl buffer; pH 7.8). Concentrations of human plasma/simulated gastric fluid/simulated intestinal fluid/human liver microsomes were selected in preliminary experiments to provide degradation of approximately 50% of PTH(1-34) within 1 h, therefore allowing time-dependent degradation to be viewed over 24 h. Reactions were terminated by the addition of TFA/H2O ([…], 10% (v/v)). The reaction products were then applied to a Vydac C18 analytical column (4.6×250-mm) and the major degradation fragment separated from intact short-chain peptides. The column was equilibrated with TFA/H20, at a flow rate of 1 mL/min. Using 0.1% (v/v) TFA in 70% acetonitrile/H2O, the concentration of acetonitrile in the eluting solvent was raised from 0% to 28% over 10 min and from 28% to 42% over 30 min. The absorbance was monitored at 206 nm using UV detector and peaks were collected manually prior to ESI-MS analysis. Area under the curve was measured for test peptides and their metabolites and percentage degradation were calculated at each time point over a period of 24 h. Stability study results of selected peptides, in human plasma, simulated gastric fluid, intestinal fluid and liver microsomes (in vitro) are listed in Table 4.

[2] = Stability of peptides in human plasma; type: in vitro ADME
Method: as §1

[3] = Stability of peptides in simulated intestinal fluid (pH 7.5); type: in vitro ADME; conditions: for half-life: simulated gi fluid
Method: as §1

[4] = Stability of peptides in simulated gastric fluid (pH 1.5; HCl, NaCl and Pepsin); type: in vitro ADME; conditions: for half-life: simulated gi fluid
Method: as §1

[5] = biological target: T1, rat PTH-1R (rat PTHR endogenously …); test: cell-based or functional assay

| cAMP released with respect to control, 1 nM peptide, UMR-106 cells [5] | cAMP released with respect to control, 10 nM peptide, UMR-106 cells [5] | cAMP released with respect to control, 100 nM peptide, UMR-106 cells [5] | Molecule | further results |
| --- | --- | --- | --- | --- |
| – | – | – | CC[C@H](C)[C@H](NC(=O)[C@H](CCC(=O)O)NC(=O)C(C)(C)NC(=O)[C@@H](NC(=O)C1(NC(=O)[C@@H](N)C(C)C)CCCC1)C(C)C)C(=O)N[C@@H](CCC(N)=O)C(=O)N[C@@H](CC(C)C)C(=O)NC(C)(CCSC)C(=O)N[C@@H](Cc1c[nH]cn1)C(=O)N[C@@H](CCC(N)=O)C(=O)N[C@@H](CCCCNC(=N)N)C(=O)N[C@@H](C)C(=O)N[C@@H](CCCCNC(=N)N)C(=O)NC(C)(Cc1ccccc1F)C(=O)NC(C)(CCCc1ccccc1)C(N)=O (some centres unmarked) [Seq. ID. 936] (H-V[Ac5c]V[Aib]EIQL[ξαMeM]HQ[hArg]A[hArg][ξαMePhe(2-F)][ξαMe(hhPhe)]-NH2) | half-life ([1]; human, microsomes): 120 min; % degradation of peptides in 24 h when incubated with liver microsomes ([1]; human, microsomes, 2 μM, pH 7.8): 81%; half-life ([2]; human, plasma): > 1440 min; metabolised at 24 h, 2 μM ([2]; human, plasma, pH 7.8): 0%; half-life ([3]; pH 7.5): > 1440 min; % degradation of peptides in 24 h when incubated with simulated intestinal fluid ([3]; simulated intestinal fluid, 2 μM, pH 7.5): 00%; % degradation of peptides in 24 h when incubated with simulated gastric fluid ([4]; simulated gastric fluid, 2 μM, pH 1.5): 52%; half-life ([4]; pH 1.5): 240 min |
| – | – | – | CC[C@H](C)[C@H](NC(=O)[C@H](CCC(=O)O)NC(=O)[C@H](CO)NC(=O)[C@@H](NC(=O)[C@@H](N)CO)C(C)C)C(=O)N[C@@H](CCC(N)=O)C(=O)N[C@@H](CC(C)C)C(=O)N[C@@H](CCSC)C(=O)N[C@@H](Cc1cnc[nH]1)C(=O)N[C@@H](CC(N)=O)C(=O)N[C@@H](CC(C)C)C(=O)NCC(=O)N[C@@H](CCCCN)C(=O)N[C@@H](Cc1cnc[nH]1)C(=O)N[C@@H](CC(C)C)C(=O)N[C@@H](CC(N)=O)C(=O)N[C@@H](CO)C(=O)N[C@@H](CCSC)C(=O)N[C@@H](CCC(=O)O)C(=O)N[C@@H](CCCN=C(N)N)C(=O)N[C@H](C(=O)N[C@@H](CCC(=O)O)C(=O)N[C@@H](Cc1c[nH]c2ccccc12)C(=O)N[C@@H](CC(C)C)C(=O)N[C@@H](CCCN=C(N)N)C(=O)N[C@@H](CCCCN)C(=O)N[C@@H](CCCCN)C(=O)N[C@@H](CC(C)C)C(=O)N[C@@H](CCC(N)=O)C(=O)N[C@@H](CC(=O)O)C(=O)N[C@H](C(=O)N[C@@H](Cc1cnc[nH]1)C(=O)N[C@@H](CC(N)=O)C(=O)N[C@@H](Cc1ccccc1)C(=O)O)C(C)C)C(C)C [PTH(1-34), reference compound] | % degradation of peptides in 24 h when incubated with liver microsomes ([1]; human liver microsomes, 37° C., peptide 2 μM): 100%; half-life ([1]; human liver microsomes, 37° C., peptide 2 μM, read-out: half-life (t1/2) in liver microsomes): 6 min; metabolised at 1 h ([1]; pH 7.8, human liver microsomes, within 1 h, 37° C., preliminary experiments, read-out: degradation): ~50%; % degradation of peptides in 24 h when incubated with human plasma ([2]; 24 h, human plasma, 37° C., peptide 2 μM): 97%; half-life ([2]; human plasma, 37° C., peptide 2 μM, read-out: half-life (t1/2) in human plasma): 30 min; metabolised at 1 h ([2]; pH 7.8, human plasma, within 1 h, 37° C., preliminary experiments, read-out: degradation): ~50%; % degradation of peptides in 24 h when incubated with simulated intestinal fluid ([3]; simulated intestinal fluid pH 7.5, 37° C., peptide 2 μM): 100%; metabolised at 1 h ([3]; pH 7.5, simulated intestinal fluid, within 1 h, 37° C., preliminary experiments, read-out: degradation): ~50%; half-life ([3]; simulated intestinal fluid pH 7.5, 37° C., peptide 2 μM, read-out: half-life (t1/2) in simulated intestinal fluid): 12 min; % degradation of peptides in 24 h when incubated with simulated gastric fluid ([4]; simulated gastric fluid pH 1.5, 37° C., peptide 2 μM): 100%; metabolised at 1 h ([4]; pH 1.5, simulated gastric fluid, within 1 h, 37° C., preliminary experiments, read-out: degradation): ~50%; half-life ([4]; simulated gastric fluid pH 1.5, 37° C., peptide 2 μM, read-out: half-life (t1/2) in simulated gastric fluid): 6 min |
| 56 percent of control | 101 percent of control | 126 percent of control | [Aib]V[Aib]EIQ[αMePhe(2,6-F2)][Nle]HQ[hCit]A[Arg(NO2)][αMePhe(2-F)] [Seq. ID. 461] | – |
| 26 percent of control | 68 percent of control | 86 percent of control | [Ac5c]V[Aib]EIQ[αMePhe(2,6-F2)][Nle]HQ[Orn]A[Aib][αMePhe(2,6-F2)] [Seq. ID. 311] | – |
| 32 percent of control | 71 percent of control | 99 percent of control | [Ac5c]V[Aib]EIQ[αMePhe(2-F)][Nle]HQ[Cit][Aib][Aib][αMePhe(2,6-F2)] [Seq. ID. 372] | – |
| 21 percent of control | 51 percent of control | 69 percent of control | [Aib]V[Aib]EIQ[αMePhe(2-F)][Nle]HQ[Cit][Aib][Cit][αMePhe(2-F)] [Seq. ID. 346] | – |
| 39 percent of control | 101 percent of control | 120 percent of control | [Aib]V[Aib]EIQ[αMePhe(2,6-F2)][Nle]HQ[hCit]A[Aib][αMePhe(2-F)] [Seq. ID. 429] | – |
| 38 percent of control | 98 percent of control | 116 percent of control | [Aib]V[Aib]EIQ[αMePhe(2,6-F2)][Nle]HQ[Orn]A[αMePhe(2,6-F2)][αMePhe(2,6-F2)] [Seq. ID. 325] | – |
| 26 percent of control | 67 percent of control | 81 percent of control | [Ac5c]V[Aib]EIQ[αMePhe(2-F)][Nle]HQ[hCit][Aib][αMePhe(2,6-F2)][αMePhe(2-F)] [Seq. ID. 444] | – |
| 38 percent of control | 79 percent of control | 119 percent of control | [Ac5c]V[Aib]EIQ[αMePhe(2,6-F2)][Nle]HQ[Cit]A[Cit][αMePhe(2-F)] [Seq. ID. 351] | – |
| 38 percent of control | 102 percent of control | 117 percent of control | [Aib]V[Aib]EIQ[αMePhe(2,6-F2)][Nle]HQ[Cit]A[Arg(NO2)][αMePhe(2-F)] [Seq. ID. 397] | – |
| 29 percent of control | 52 percent of control | 69 percent of control | [Aib]V[Aib]EIQ[αMePhe(2-F)][Nle]HQ[hCit][Aib][Cit][αMePhe(2,6-F2)] [Seq. ID. 418] | – |
| 18 percent of control | 51 percent of control | 72 percent of control | [Aib]V[Aib]EIQ[αMePhe(2-F)][Nle]HQ[Orn][Aib][Arg(NO2)][αMePhe(2-F)] [Seq. ID. 330] | – |
| 28 percent of control | 78 percent of control | 99 percent of control | [Ac3c]V[Aib]EIQL[Nle]HQ[hArg][Aib]K[αMeF] [Seq. ID. 15] | – |

From patent US8383581B2, “Short-chain peptides as parathyroid hormone (PTH) receptor agonist” (Cadila Healthcare Limited, priority 2009, dated 2013)
